Experimental findings from publication PMC10579229 (Nature Communications, 2023) are described below.

For orientation: stoichiometry N means the number of molecules, sites or subunits per partner or assembly.

Series [1] deals with the molecule itself. Description: crystal structure; P-domain and M4 mixed 1:1.5, complex peak from S200 gel filtration; crystals at 20 °C in 2% Tacsimate pH 4.0, 0.1 M sodium acetate pH 4.6, 16% PEG 3350; 2.87 Å. Background: In gel filtration, larger molecules generally elute earlier.
Series [2] deals with capsid protein VP1 of GII.4 New Orleans HuNoV (human norovirus GII.4 (New Orleans)).
For series [3], the target named is capsid protein VP1 of GII.4 Den Haag HuNoV (human norovirus GII.4 (Den Haag)).

B1: GII.4 Sydney 2012 P-domain (protruding domain of the capsid protein VP1) (domain or fragment)
chain: ESRTKPFSVPVLTVEEMTNSRFPIPLEKLFTGPSSAFVVQPQNGRCTTDGVLLGTTQLSPVNICTFRGDVTHITGSRNYTMNLASQNWNDYDPTEEIPAPLGTPDFVGKIQGVLTQTTRTDGSTRGHKATVYTGSADFAPKLGRVQFETDTDRDFEANQNTKFTPVGVIQDGGTTHRNEPQQWVLPSYSGRNTHNVHLAPAVAPTFPGEQLLFFRSTMPGCSGYPNMDLDCLLPQEWVQYFYQEAAPAQSDVALLRFVNPDTGRVLFECKLHKSGYVTVAHTGQHDLVIPPNGYFRFDSWVNQFYTLAPMG
modifications: biotin (EZ-Link NHC-LC-LC-biotin), in the BLI only
notes: also called GII.4 P-domain; GII.4 Sydney P-domain; source: E. coli BL21(DE3), purified (His-Trap, TEV cleavage, His-Trap, MBPTrap, SEC); not shown: His6, N-terminal, cleaved; MBP, N-terminal, cleaved
Take B1: the “stoichiometry N” value in series [1] stood at 2.

B2: nanobody M4 (VHH)
VHH: QVKLQQSGGGLVQPGGSLRLSCAASESTISINTLGWYRQAPGNQRELVATITTGGTTNYADSVKGRFTISRDNAKNTVYLQMNNLEPGDTAVYYCNLKRRDLQSRFGGYWGQGTQVTVSS
As for B2, the IC50 of neutralisation of GII.4 New Orleans HuNoV (stool filtrate, 100 TCID50) in J4 FUT2 human intestinal enteroid monolayers; viral genome equivalents by RT-qPCR at 24 hpi in series [2] turned out to be 0.056 mg/L. For the same molecule, in series [3], the IC50 of neutralisation of GII.4 Den Haag HuNoV (stool filtrate, 100 TCID50) in J4 FUT2 human intestinal enteroid monolayers; viral genome equivalents by RT-qPCR at 24 hpi was 0.379 mg/L.
